From article PMC11508043 (Nature, 2023)

Biological target: Recombinant wild-type human histone H1.0 (human)
Assay: turbidity

ProTα:H1 ratio at maximum phase separation: 1.2 ProTα:H1
B1: ProTα (unlabelled) (natural protein, human)
chain: GPMSDAAVDTSSEITTKDLKEKKEVVEEAENGRDAPANGNANEENGEQEADNEVDEEEEEGGEEEEEEEEGDGEEEDGDEDEEAESATGKRAAEDDEDDDVDTKKQKTDEDD
